Measured values: the DeepSol protein solubility set

Assay: soluble on expression in E. coli; label from the status in PepcDB or PDB records

Sequence	soluble on expression in E. coli
MALSDRLELVSASEIRKLFDIAAGMKDVISLGIGEPDFDTPQHIKEYAKEALDKGLTHYGPNIGLLELREAIAEKLKKQNGIEADPKTEIMVLLGANQAFLMGLSAFLKDGEEVLIPTPAFVSYAPAVILAGGKPVEVPTYEEDEFRLNVDELKKYVTDKTRALIINSPCNPTGAVLTKKDLEEIADFVVEHDLIVISDEVYEHFIYDDARHYSIASLDGMFERTITVNGFSKTFAMTGWRLGFVAAPSWIIERMVKFQMYNATCPVTFIQYAAAKALKDERSWKAVEEMRKEYDRRRKLVWKRLNEMGLPTVKPKGAFYIFPRIRDTGLTSKKFSELMLKEARVAVVPGSAFGKAGEGYVRISYATAYEKLEEAMDRMERVLKERKLV	soluble
MKKFFMASLLGSAIALCTTAMAASTDLKALEDAARKEGTVNSVGMPDAWANWKGTWEDLASKYGLKHSDTDMSSAQELAKFEAEKDNASADIGDVGAAFGPIAVTKGVSQPYKPSTWDQVPEWAKDKDGHWALAYTGTIAFIINKDLVKEEERPKTWHDLEKGKYKVAIGDVGTAAQAANGVLAAAIAYKGDESNVAPGLQLFTKLAQQKRLSLANPTIQTLEKGEVEVGVVWDFNGLSYREQIDPKRFEVLIPSDGSVISGYTTVINKYAKHPNAAKLTREYIFSDAGQINLAKGHARPIRAEHLKLPADVQAKLLPNDQYAAAQPIKNAEAWEATSKKLPQMWQEQVIIEME	not soluble
GAQNQDCAFFFPNQEGEQITRNCYTADGKLTNILVYRVDQAYEYPSGMEVVANYTFADAAGKTLNSGQMVARCSDGNFSMSMGDVATFPTALNMMNADVYMMGDLMNYPDAFSNPMNPGDDDEFDDGTLRLYQKGNKNNRAEISVFDREFVTTETVNTPAGAFYCTKVKYEMNIWTPKETIKGYGYEWYAPNIGIVRSEQYNNKKELQSYSVLERIKK	soluble
MGSDKIHHHHHHMAQHEMSPRANSETDTVVLDAPGKSVYESLCEKINLTPVKATRPMESFQSADALSESSLDERVAQAMTVFLKMIQDSSQQVDRLDKSLLDFHIAHLDQQISQQLDAIMHHETFQQIESAWRGLKFLVDRTDFRKNVKIEVLDVSKDALRQDFEDTPELIQSGLYLHTYIQEYDTPGGEPVGSIISNYEFDRSQQDIVLLRNISKVSAAAHMPFIGSVSPKFFGKDSMDEVASIRDIGNYFDRAEYLKWKSFRDSDDARYIGLTLPRFLARLPYGPDTVPVRAFNYTEAVKGPDHSRYLWGNASFAFAVNMVQSFIKNGWCVQIRGPQAGGLVEDLPIHLYDLGTGNQAKIPTEVLIPETREFEFANLGFIPLSYYKNHDFACFFSAHSAQKPALYDTKEATANSRVNARLPYIFLLSRIAHYLKLIQRENIGTTKDRRVLELELNTWIKTLVTEMTDPGDELQASHPLREAKVIVEDIEDNPGFFRVKLFIVPHFQIEGMDINLSLVSQMPKAKTDRLLSASTAI	not soluble
MFISVVIPTYDRQPILEKCLRALEAQQLSASTVINEYEIVLVDDGSTDGTLDWLATHKEEFPHVRWFEQDHAGPAAARNLGVEKARGDIIIFIDSDLVVLDNFLQAHADALLQGQEKLGSDRFFTYGAVINTCNFDNPTAEPYKITDFSAAFFATGNVAIPKHWLEQAGLFDTGFQLYGWEDLELGVRLKNLGLQLIKCPAAVGYHWHPPFNLEQVPNLIEKEIQRGRMGVLFYKKHPTWEVRMMIQMTWLHRLLWGILSLNGALNENTMAPLLQWLIKSGKPQLALEIARIFLNWYNVKGVYQAYSQMQKVSLEHHHHHH	soluble
MVKESIPKEGENIKIQSYKHDGNIHRVWSETTILKGTEHVIIGGNDHTLVTESDGRTWITREPAIVYFHSEYWFNVICMFREDGIYYYCNLSSPFACDEEALKYIDYDLDIKVYPNGKYHLLDEDEYEQHMNQMNYPHDIDIILRRNVDILQQWIEQKKGPFAPDFIKVWKERYKKIRDY	not soluble
MAEGQIIKALSGFYYVLSEGRVFQCRGRGVFRKKKVTPLVGDRVVFQATSETEGYILEIGERQNELVRPPIANVEQAILVFSAVSPDFSAKLLDRFLVLVESKRIAPIIVISKIDLLDGESKEEIARYVHDYRSIGYDVIETSAVTKGGLDELALRLRGRVSVVAGQSGVGKSSLLNALRPDLRLKTGDISTHLGRGKHTTRHVELLEVAGGLVADTPGFGALEFDQIELDELPHYFPEFRTYGEGCKFRGCLHIAEPKCAVREAVEAGEIPSYRYDHYVSFVAEMKERKPRY	not soluble
MAHHHHHHMEYDDGEYGRESSVEALAQSQESEQVASAASGLPESSSSAGSAKPSFRILSTRQLAQWARVRHQMDVGCSGNTVWTVSSAKHGNGVLHLMRHHDLNNFWQSDGVLPHVIRIQLGQLTPVEAMAVYVNSAVDQSYSPRVIRVKAGTHNGDMTEVAKADIGAGQECGWVLITLREMAGDDGDDVEGGGPNDGGGGVAAGVRIQHQQQEVRPRQQDGGAPEGGAASSYSPPIPYSEVAAALGHGNHATPSSAGVQTSAAMPRIPRSTSNPADRWLWCTLIDIYICENQFNGRDCHLRGIRLMGPRYEELERVSNADATGTVTCARPLQGGEPLEGTADELQLR	not soluble
NTWKIFVGNVSAACTSQELRSLFERRGRVIECDVVKDYAFVHMEKEADAKAAIAQLNGKEVKGKRINVELSTKGQKK	soluble
MGSDKIHHHHHHMNYIKRSLERKFLHMSKFFKAVLVTGARQVGKTTMLKHLAEGQNRTYVTLDNLMARNLAKTDPVLFFQTYKPPVLIDEVQYAPELFSQIKILCDSSEEPGLIWLTGSQQFEMMKNVRETLAGRIGIMTLYSLSKNEKDGIEFENSLDFSPECLFARQRIAEKNDVLKVFEHIWRGGMPQVLHADAEQRQEYYNAYVNTYLMRDVAELGGITDSLRFAKFLTACAALTSEQVNYKNLSEAADISQPTAKEWLRLLEGLGIVYLLQPYANNAFKRLTKAPKLYFCDTGLCAHLSMWLTPETLMNGAASGHYFENHVVAEMLKSYAYSASKAVITYFRDSNAKEIDIIVEANNQLHPLEIKKSASPNSREINKYTILDKSSIKRGHGGILCLCEEVVPIDEQNCFIPCNLI	not soluble
MPSPSGGWGCGGTWARGVDGARLFSIHHQAVRPNLSTISPPKEPPMIEVRHLCKSFARKPAVQDISFSIPAGEIVGYLGPNGAGKSTTIKVLTGLLVPDSGEVRVGGLVPWKQRRQHVARLGAVFGQRTTLWWDLPVRESLELLRHVYRVPAARFAENLAGFTELLELGPFLNTPARALSLGQRMRADLAAALLHDPELLFLDEPTVGLDVVAKERIREFVKAVNAERGVTVLLTTHDLGDVERLARRVMMIDTGRLLFDGPLAELQARYGGERELWVEFEKAPAQPALPGLTLLGQDGPRVRYGFSGAAAAPIAQVTALAPVRDLAVKEPEVEATIRRIYEGNLLGSRSVREGLEHHHHHH	not soluble
MAELSDQEMLRYNRQIILRGFDFDGQEALKDSRVLIVGLGGLGCAASQYLASAGVGNLTLLDFDTVSLSNLQRQTLHSDATVGQPKVESARDALTRINPHIAITPVNALLDDAELAALIAEHDLVLDCTDNVAVRNQLNAGCFAAKVPLVSGAAIRMEGQITVFTYQDGEPCYRCLSRLFGENALTCVEAGVMAPLIGVIGSLQAMEAIKMLAGYGKPASGKIVMYDAMTCQFREMKLMRNPGCEVCGQ	soluble
MAHHHHHHMIAAIKTPAFQERVRAAMSREPTPADAEAVMKRYEEVQADYFTNHYNAEAGGICSSASAGAESRGTGGAGGRAKSSQDASEALAQQVDDMNLQEASDAPKLDGVEIVEQLKNAVRVYKEKETVRLITELCLLIESQVTALPATVPALRHLYSNSVYGSSAMEHAQAASAQAGGGESVLPVAQPSPQVMSMMGMAMRTLNPRQRETLERVQRAMMNGSPPLPEDMQDMLLIQRQLGAFMQTMQRFGQMPSGRGCGSGGRGGCGGQGGQ	soluble
MGSDKIHHHHHHMPPLDLTHIRQHHTVAELIALGKARRQVTPFEKLGTFTPVKRNASDYLKHVREMLVPELLPLRRERMSASAFAFFRGSVELMDYDLDYQSSTEIPAVVCGDAHIGNFGFYASPERRLVFDLNDFDEAGVHPWEWDLRRLLVSVLLAARDSNFKPKKVEKLIQAASASYREALKRMFDQTTLDRFYRDNEVQAVLNFGGAPEDTADLIASLVKKAQKRNSEQVVRKFTVTNSRGERQFKENAPRSVHIDRQTYQGLKAGISEYLLNVRTDVALLLSQYEVTDIIRHSVGVGSFGSLCYLVLLTSTDGSHMVLQIKEALPTRKVGSQSRPALTAAMELTEGQRIVSSQRILQATSDAFLGYFQMENKSFYVRQFRDMKESIDIPTLDWGQFQAYANTCAMILAKAHAQSPTAAMIRGYVGNSAKFDEAMAKWATAYVEQVDNDYQDFLDV	not soluble
SSMLPSFGFTQEQVACVCEVLQQGGNLERLGRFLWSLPACDHLHKNESVLKAKAVVAFHRGNFRELYKILESHQFSPHNHPKLQQLWLKAHYVEAEKLCGRPLGAVGKYRVRRKFPLPRTIWDGEETSYCFKEKSRGVLREWYAHNPYPSPREKRELAEATGLTTTQVSNWFKNRRQRDRAAEAKERENTENNNSSSNKQNQLSPLEGGKPLMSSSEEEFSPPQSPDQNSVLLLQGNMGHARSSNYSLPGLTASQPSHGLQTHQHQLQDSLLGPLTSSLVDLGS	soluble
MELVVKSVAAASVKTATLVIPVGENRKLGAVAKAVDLASEGAISAVLKRGDLAGKPGQTLLLQNLQGLKAERVLLVGSGKDEALGDRTWRKLVASVAGVLKGLNGADAVLALDDVAVNNRDAHYGKYRLLAETLLDGEYVFDRFKSQKVEPRALKKVTLLADKAGQAEVERAVKHASAIATGMAFTRDLGNLPPNLCHPSFLAEQAKELGKAHKALKVEVLDEKKIKDLGMGAFYAVGQGSDQPPRLIVLNYQGGKKADKPFVLVGKGITFDTGGISLKPGAGMDEMKYDMCGAASVFGTLRAVLELQLPVNLVCLLACAENMPSGGATRPGDIVTTMSGQTVEILNTDAEGRLVLCDTLTYAERFKPQAVIDIATLTGACIVALGSHTTGLMGNNDDLVGQLLDAGKRADDRAWQLPLFDEYQEQLDSPFADMGNIGGPKAGTITAGCFLSRFAKAYNWAHMDIAGTAWISGGKDKGATGRPVPLLTQYLLDRAGA	soluble
MSLKIKCILIEDEISNEKELYFILRRYDDIEIVGMVQNTDEGIDLVKKLRPQAVFLDINVPNFNGIKLAEEIKDVDSTIAVIFVTAYDKYAVAAFEIKALDYILKPFSIARIEKAVERLKEYINVNKSMKEKLFELICEFNNMERKYIINKIPCENKGKIVLVDVNDIYFFYIKSEKTYVKLNDIIYVTSSTLNDMEKKTGFFRAHRSYLVNLNKIFEIYSWFNGTYKLIMSDYRKSEIPVSRGNVRKLKEIINIEGHHHHHH	not soluble
MAHHHHHHMRISCSCLNKSLVSTAIPSDIIERAGTNLPGIPHKYRVCRAYRQWLKLAVLCPHSLLCELNEHAQMNERFVIIVRQKFREGEELRDPEEIAVAVQSCERSLAMFRFLAADGARRRFPEAKPRLNLHKMGFMEMAKINYTQMAKEYWNTYIMRRW	not soluble
MSSVERYLSQLVKTEPQLETLKELYIGKKWHQLTEELLKLIHSGQVNRINLVELYDSFIREFESSLNPLALVRILVGIARKNYRDLNKALEFVDYATNSKAFISADEEASLFLKSETARLKLEGGNLSGVKQILEEVGVAMESTRDLDTVVHSSYHRVCAQYYKAVGPATKYYSSALLFFQYAPLDSFTVEERVHWAYDLGVASIVAETIFNFGEILEYDIMQSLKSEKLQWLLELLEAFKYGSIEKFNQIGNRARDQINQEPALSSNWQFLEQKIRLRSLMELATKKLVERVISFDDICSSCEVTKDQVEYLVMKALSLHLLQGTINEMDETVSISYVQPKTLDRNEVEGLYNRLIPWKTHVHEIALSLERSTEADLAQAQN	soluble
RCPKGSKAYGSHCYALFLSPKSWTDADLACQKRPSGNLVSVLSGAEGSFVSSLVKSIGNSYSYVWIGLHDPTQGTEPNGEGWEWSSSDVMNYFAWERNPSTISSPGHCASLSRSTAFLRWKDYNCNVRLPYVCKFTD	soluble
